Tests used:
[1] = biological target: T1, p50:RelA heterodimer, RelA chain;p50:RelA heterodimer, p50 chain (;, UniProt Q04206;P19838 1-551;1-435, |); test: EMSA; EMSA: 10 mM Tris-HCl pH 7.5, 50 mM NaCl, 10% glycerol, 1% NP-40, 1 mM EDTA, 0.1 mg/mL salmon sperm DNA, room temp; BLI: 25 mM Tris-HCl pH 7.5, 150 mM NaCl, 0.02% Tween 20, 0.1 mg/mL salmon sperm DNA, 1 mM DTT; conditions: protein: recombinant;recombinant; tags: His;His; copies: 1;1; label: 32P
[2] = biological target: T2, Nfatc1 (affinity-purified) (UniProt O95644 1-698); test: as above; conditions: protein: recombinant; label: 32P
T2 sequence: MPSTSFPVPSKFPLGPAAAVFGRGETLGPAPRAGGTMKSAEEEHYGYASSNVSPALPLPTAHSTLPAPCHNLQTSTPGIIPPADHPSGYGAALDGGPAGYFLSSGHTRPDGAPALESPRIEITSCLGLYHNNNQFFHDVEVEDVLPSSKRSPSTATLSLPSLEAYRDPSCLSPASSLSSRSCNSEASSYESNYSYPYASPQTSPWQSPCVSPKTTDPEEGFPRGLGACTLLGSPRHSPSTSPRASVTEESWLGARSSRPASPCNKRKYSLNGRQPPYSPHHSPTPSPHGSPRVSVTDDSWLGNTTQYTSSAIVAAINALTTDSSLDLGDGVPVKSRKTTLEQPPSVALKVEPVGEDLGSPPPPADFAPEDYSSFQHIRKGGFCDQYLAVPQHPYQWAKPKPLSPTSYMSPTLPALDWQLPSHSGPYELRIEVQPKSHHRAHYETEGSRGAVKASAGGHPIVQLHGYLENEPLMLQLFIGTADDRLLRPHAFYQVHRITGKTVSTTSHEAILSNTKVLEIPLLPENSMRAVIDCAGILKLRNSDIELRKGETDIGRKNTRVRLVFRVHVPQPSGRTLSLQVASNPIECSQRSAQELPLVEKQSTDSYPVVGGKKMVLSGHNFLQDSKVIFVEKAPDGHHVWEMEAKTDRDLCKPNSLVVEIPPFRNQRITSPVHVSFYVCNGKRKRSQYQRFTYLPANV

[3] = biological target: T3, RelA homodimer (UniProt Q04206 1-551); test: as above; conditions: protein: recombinant; tags: His; chain copies: 2; label: 32P
T3 sequence (Q04206 whole entry): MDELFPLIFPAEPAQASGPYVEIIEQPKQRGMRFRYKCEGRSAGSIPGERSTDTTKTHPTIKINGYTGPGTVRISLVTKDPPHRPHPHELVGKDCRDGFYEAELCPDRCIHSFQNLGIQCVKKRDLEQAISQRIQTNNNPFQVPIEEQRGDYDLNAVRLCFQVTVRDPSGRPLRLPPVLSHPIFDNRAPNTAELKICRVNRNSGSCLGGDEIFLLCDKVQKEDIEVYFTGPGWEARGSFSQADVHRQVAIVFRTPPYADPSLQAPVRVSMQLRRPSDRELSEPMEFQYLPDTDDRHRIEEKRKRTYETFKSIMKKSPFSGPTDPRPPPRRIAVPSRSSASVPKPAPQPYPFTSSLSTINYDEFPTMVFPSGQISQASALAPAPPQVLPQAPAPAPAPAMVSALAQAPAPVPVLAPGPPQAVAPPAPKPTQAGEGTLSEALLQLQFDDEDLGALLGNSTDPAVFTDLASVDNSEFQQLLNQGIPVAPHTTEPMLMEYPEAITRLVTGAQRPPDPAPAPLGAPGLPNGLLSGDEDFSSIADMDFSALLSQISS

[4] = biological target: T4, Tead3 (affinity-purified) (UniProt Q99594 1-435); test: as above; conditions: protein: recombinant; label: 32P
T4 sequence (Q99594 whole entry): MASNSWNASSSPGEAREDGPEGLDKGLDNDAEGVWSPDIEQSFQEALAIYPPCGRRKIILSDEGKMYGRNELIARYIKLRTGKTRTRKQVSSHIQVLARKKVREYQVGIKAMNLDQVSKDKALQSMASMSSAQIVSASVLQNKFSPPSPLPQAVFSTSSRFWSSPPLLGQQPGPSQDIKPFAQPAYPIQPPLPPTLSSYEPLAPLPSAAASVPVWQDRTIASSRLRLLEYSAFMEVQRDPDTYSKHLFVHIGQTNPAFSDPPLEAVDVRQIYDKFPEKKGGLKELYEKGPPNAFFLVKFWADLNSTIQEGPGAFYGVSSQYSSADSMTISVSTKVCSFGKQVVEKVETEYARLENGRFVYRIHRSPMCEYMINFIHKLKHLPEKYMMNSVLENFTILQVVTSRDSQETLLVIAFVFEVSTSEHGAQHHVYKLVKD

[5] = biological target: T5, Nfat5 RHR WT (UniProt O94916 264-544); test: EMSA; no observable binding; EMSA: 10 mM Tris-HCl pH 7.5, 50 mM NaCl, 10% glycerol, 1% NP-40, 1 mM EDTA, 0.1 mg/mL salmon sperm DNA, room temp; BLI: 25 mM Tris-HCl pH 7.5, 150 mM NaCl, 0.02% Tween 20, 0.1 mg/mL salmon sperm DNA, 1 mM DTT; conditions: protein: recombinant; chain copies: 2; label: 32P
T5 sequence: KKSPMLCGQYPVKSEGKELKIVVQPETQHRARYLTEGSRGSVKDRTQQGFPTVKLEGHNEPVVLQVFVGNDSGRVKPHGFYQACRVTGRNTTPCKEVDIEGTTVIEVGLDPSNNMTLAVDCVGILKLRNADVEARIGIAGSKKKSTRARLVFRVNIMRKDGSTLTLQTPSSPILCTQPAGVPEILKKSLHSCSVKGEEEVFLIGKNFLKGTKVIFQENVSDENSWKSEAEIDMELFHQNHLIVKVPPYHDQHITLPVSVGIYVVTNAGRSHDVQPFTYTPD

[6] = biological target: T6, Nfat5 RHR mutant (UniProt O94916 264-544, R295S;Y296S); test: as above; conditions: protein: recombinant; chain copies: 2; label: 32P
T6 sequence: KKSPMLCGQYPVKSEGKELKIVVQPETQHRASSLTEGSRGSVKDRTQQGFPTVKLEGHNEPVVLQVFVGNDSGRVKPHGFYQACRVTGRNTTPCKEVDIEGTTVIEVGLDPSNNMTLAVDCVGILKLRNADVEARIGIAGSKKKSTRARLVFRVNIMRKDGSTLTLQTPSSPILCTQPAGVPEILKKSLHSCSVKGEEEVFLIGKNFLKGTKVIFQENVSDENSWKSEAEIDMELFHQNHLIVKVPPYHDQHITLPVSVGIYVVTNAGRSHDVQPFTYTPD

[7] = biological target: T4, Tead3 (affinity-purified); test: EMSA; strong site only; EMSA: 10 mM Tris-HCl pH 7.5, 50 mM NaCl, 10% glycerol, 1% NP-40, 1 mM EDTA, 0.1 mg/mL salmon sperm DNA, room temp; BLI: 25 mM Tris-HCl pH 7.5, 150 mM NaCl, 0.02% Tween 20, 0.1 mg/mL salmon sperm DNA, 1 mM DTT; conditions: protein: recombinant; label: 32P
[8] = biological target: T1, p50:RelA heterodimer, RelA …; test: EMSA; no discernible effect of mutation; EMSA: 10 mM Tris-HCl pH 7.5, 50 mM NaCl, 10% glycerol, 1% NP-40, 1 mM EDTA, 0.1 mg/mL salmon sperm DNA, room temp; BLI: 25 mM Tris-HCl pH 7.5, 150 mM NaCl, 0.02% Tween 20, 0.1 mg/mL salmon sperm DNA, 1 mM DTT; conditions: protein: recombinant;recombinant; tags: His;His; copies: 1;1; label: 32P
[9] = biological target: T3, RelA homodimer; test: as above; conditions: protein: recombinant; tags: His; chain copies: 2; label: 32P
[10] = biological target: T4, Tead3 (affinity-purified); test: EMSA; weak site only; EMSA: 10 mM Tris-HCl pH 7.5, 50 mM NaCl, 10% glycerol, 1% NP-40, 1 mM EDTA, 0.1 mg/mL salmon sperm DNA, room temp; BLI: 25 mM Tris-HCl pH 7.5, 150 mM NaCl, 0.02% Tween 20, 0.1 mg/mL salmon sperm DNA, 1 mM DTT; conditions: protein: recombinant; label: 32P
[11] = biological target: T1, p50:RelA heterodimer, RelA …; test: EMSA; binding retained; EMSA: 10 mM Tris-HCl pH 7.5, 50 mM NaCl, 10% glycerol, 1% NP-40, 1 mM EDTA, 0.1 mg/mL salmon sperm DNA, room temp; BLI: 25 mM Tris-HCl pH 7.5, 150 mM NaCl, 0.02% Tween 20, 0.1 mg/mL salmon sperm DNA, 1 mM DTT; conditions: protein: recombinant;recombinant; tags: His;His; copies: 1;1; label: 32P
[12] = biological target: T3, RelA homodimer; test: as above; conditions: protein: recombinant; tags: His; chain copies: 2; label: 32P

T1 sequence (Q04206 whole entry, chain 1 of 2): as the sequence (Q04206 whole entry) above
T1 sequence (P19838 1-435, chain 2 of 2): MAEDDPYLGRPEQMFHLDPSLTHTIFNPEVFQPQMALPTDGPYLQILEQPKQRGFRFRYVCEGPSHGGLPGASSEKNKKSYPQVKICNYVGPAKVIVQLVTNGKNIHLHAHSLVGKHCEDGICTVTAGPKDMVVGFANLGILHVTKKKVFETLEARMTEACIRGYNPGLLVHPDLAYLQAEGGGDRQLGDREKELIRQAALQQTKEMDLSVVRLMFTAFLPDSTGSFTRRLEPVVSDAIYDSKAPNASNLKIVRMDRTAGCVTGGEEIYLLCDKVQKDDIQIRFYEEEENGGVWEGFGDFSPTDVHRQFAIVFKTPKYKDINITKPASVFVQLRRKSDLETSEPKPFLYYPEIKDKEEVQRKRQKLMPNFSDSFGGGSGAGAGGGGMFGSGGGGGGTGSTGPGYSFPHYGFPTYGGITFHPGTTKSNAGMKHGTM

B1: 2DM Cxcl2 probe (both sites mutated) (dsDNA)
DNA 1: TCGACATGAGGGGACCCTGAGCTCAGCTAATTTGACTGGTCCCCGGGCTTTTGGAG
DNA 2: CTCCAAAAGCCCGGGGACCAGTCAAATTAGCTGAGCTCAGGGTCCCCTCATGTCGA
**Q.** Does B1 bind [1]?
**A.** no binding

**Q.** Does B1 bind [2]?
**A.** no binding

**Q.** Does B1 bind [3]?
**A.** no binding

**Q.** Does B1 bind [4]?
**A.** no binding

B2: Nfat EMSA probe (dsDNA)
DNA 1: TCGACATGAGGGGACCCTGAGCTCAGGGAATTTCCCTGGTCCCCGGGCTTTTCCAG
DNA 2: CTGGAAAAGCCCGGGGACCAGGGAAATTCCCTGAGCTCAGGGTCCCCTCATGTCGA
**Q.** Does B2 bind [5]?
**A.** no binding

**Q.** Does B2 bind [6]?
**A.** no binding

B3: 2ΔW Cxcl2 probe (weak site mutated) (dsDNA)
DNA 1: TCGACATGAGGGGACCCTGAGCTCAGGGAATTTCCCTGGTCCCCGGGCTTTTGGAG
DNA 2: CTCCAAAAGCCCGGGGACCAGGGAAATTCCCTGAGCTCAGGGTCCCCTCATGTCGA
**Q.** Does B3 bind [2]?
**A.** binds

**Q.** Does B3 bind [7]?
**A.** binds

**Q.** Does B3 bind [8]?
**A.** binds

**Q.** Does B3 bind [9]?
**A.** binds

B4: 2ΔS Cxcl2 probe (strong site mutated) (dsDNA)
DNA 1: TCGACATGAGGGGACCCTGAGCTCAGCTAATTTGACTGGTCCCCGGGCTTTTCCAG
DNA 2: CTGGAAAAGCCCGGGGACCAGTCAAATTAGCTGAGCTCAGGGTCCCCTCATGTCGA
**Q.** Does B4 bind [2]?
**A.** binds

**Q.** Does B4 bind [10]?
**A.** no binding

**Q.** Does B4 bind [11]?
**A.** binds

**Q.** Does B4 bind [12]?
**A.** binds

B5: 2WT Cxcl2 probe (dsDNA)
DNA 1: TCGACATGAGGGGACCCTGAGCTCAGGGAATTTCCCTGGTCCCCGGGCTTTTCCAG
DNA 2: CTGGAAAAGCCCGGGGACCAGGGAAATTCCCTGAGCTCAGGGTCCCCTCATGTCGA
**Q.** Does B5 bind [2]?
**A.** binds

**Q.** Does B5 bind [4]?
**A.** binds
